Experiments:
[1] = molecular target: CTLA4-Fc MMP9 (MMP9-cleavable CTLA4-Fc mask; CTLA4-Fc_WT)
[2] = molecular target: CTLA4-Fc Mxx9 (non-cleavable mask), P16410
[3] = molecular target: T1, mLCN2-Fc (bivalent m-Lcn2 fused to human IgG1 Fc)
T1 chain: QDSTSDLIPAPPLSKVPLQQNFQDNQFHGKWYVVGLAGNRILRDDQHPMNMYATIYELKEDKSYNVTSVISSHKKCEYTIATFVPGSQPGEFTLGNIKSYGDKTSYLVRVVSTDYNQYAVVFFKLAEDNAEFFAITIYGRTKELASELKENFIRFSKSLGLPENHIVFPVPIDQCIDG

Sequence of CTLA4-Fc MMP9 (MMP9-cleavable CTLA4-Fc mask; CTLA4-Fc_WT) (chain, as listed by the source): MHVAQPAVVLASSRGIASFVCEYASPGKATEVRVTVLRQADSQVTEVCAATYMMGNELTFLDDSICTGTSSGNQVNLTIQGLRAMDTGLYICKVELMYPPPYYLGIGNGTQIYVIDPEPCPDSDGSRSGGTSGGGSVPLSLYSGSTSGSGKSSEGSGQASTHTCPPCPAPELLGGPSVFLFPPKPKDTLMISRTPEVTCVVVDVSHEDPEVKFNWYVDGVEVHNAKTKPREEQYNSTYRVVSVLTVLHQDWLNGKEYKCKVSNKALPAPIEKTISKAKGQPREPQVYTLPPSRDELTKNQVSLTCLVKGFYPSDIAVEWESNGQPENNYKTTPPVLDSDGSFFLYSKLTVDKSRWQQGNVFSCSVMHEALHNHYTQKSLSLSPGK
Sequence of CTLA4-Fc Mxx9 (non-cleavable mask), P16410 (P16410 whole entry, looked up, the tested form may be a part): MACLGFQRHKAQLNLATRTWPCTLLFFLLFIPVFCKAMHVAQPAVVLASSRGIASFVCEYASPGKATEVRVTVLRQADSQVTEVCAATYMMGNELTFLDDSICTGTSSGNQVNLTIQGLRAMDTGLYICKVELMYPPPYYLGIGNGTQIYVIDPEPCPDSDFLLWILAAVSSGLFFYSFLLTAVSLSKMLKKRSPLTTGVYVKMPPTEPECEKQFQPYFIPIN

B1: recombinant human MMP9 (ProSpecBio) (protein)
chain: APRQRQSTLVLFPGDLRTNLTDRQLAEEYLYRYGYTRVAEMRGESKSLGPALLLLQKQLSLPETGELDSATLKAMRTPRCGVPDLGRFQTFEGDLKWHHHNITYWIQNYSEDLPRAVIDDAFARAFALWSAVTPLTFTRVYSRDADIVIQFGVAEHGDGYPFDGKDGLLAHAFPPGPGIQGDAHFDDDELWSLGKGVVVPTRFGNADGAACHFPFIFEGRSYSACTTDGRSDGLPWCSTTANYDTDDRFGFCPSERLYTQDGNADGKPCQFPFIFQGQSYSACTTDGRSDGYRWCATTANYDRDKLFGFCPTRADSTVMGGNSAGELCVFPFTFLGKEYSTCTSEGRGDGRLWCATTSNFDSDKKWGFCPDQGYSLFLVAAHEFGHALGLDHSSVPEALMYPMYRFTEGPPLHKDDVNGIRHLYGPRPEPEPRPPTTTTPQPTAPPTVCPTGPPTVHPSERPTAGPTGPPSAGPTGPPTAGPSTATTVPLSPVDDACNVNIFDAIAEIGNQLYLFKDGKYWRFSEGRGSRPQGPFLIADKWPALPRKLDSVFEERLSKKLFFFSGRQVWVYTGASVLGPRRLDKLGLGADVAQVTGALRSGRGKMLLFSGRRLWRFDVKAQMVDPRSASEVDRMFPGVPLDTHDVFQYREKAYFCQDRFYWRVSSRSELNQVDQVGYVTYDILQCPED
cleavage, SDS-PAGE [1]: Recombinant MMP9 was demonstrated to effectively cleave the CTLA4-MMP9-Fc mask | intensity of the full-length band, time course of cleavage at 37 °C, SDS-PAGE [1]: At 2 h the intensity of the full-length band was ~50% of the 0 h timepoint | cleavage, SDS-PAGE [2]: Addition of MMP9 had no effect on CTLA4-Fc Mxx9 bands. | cleavage, SDS-PAGE [3]: but not the m-Lcn2-Fc

Reference: US20200325212
